In patent publication US20240368675:

System: T1, Gs12-10 (uncultured bacterium (metagenome)?)
T1 sequence: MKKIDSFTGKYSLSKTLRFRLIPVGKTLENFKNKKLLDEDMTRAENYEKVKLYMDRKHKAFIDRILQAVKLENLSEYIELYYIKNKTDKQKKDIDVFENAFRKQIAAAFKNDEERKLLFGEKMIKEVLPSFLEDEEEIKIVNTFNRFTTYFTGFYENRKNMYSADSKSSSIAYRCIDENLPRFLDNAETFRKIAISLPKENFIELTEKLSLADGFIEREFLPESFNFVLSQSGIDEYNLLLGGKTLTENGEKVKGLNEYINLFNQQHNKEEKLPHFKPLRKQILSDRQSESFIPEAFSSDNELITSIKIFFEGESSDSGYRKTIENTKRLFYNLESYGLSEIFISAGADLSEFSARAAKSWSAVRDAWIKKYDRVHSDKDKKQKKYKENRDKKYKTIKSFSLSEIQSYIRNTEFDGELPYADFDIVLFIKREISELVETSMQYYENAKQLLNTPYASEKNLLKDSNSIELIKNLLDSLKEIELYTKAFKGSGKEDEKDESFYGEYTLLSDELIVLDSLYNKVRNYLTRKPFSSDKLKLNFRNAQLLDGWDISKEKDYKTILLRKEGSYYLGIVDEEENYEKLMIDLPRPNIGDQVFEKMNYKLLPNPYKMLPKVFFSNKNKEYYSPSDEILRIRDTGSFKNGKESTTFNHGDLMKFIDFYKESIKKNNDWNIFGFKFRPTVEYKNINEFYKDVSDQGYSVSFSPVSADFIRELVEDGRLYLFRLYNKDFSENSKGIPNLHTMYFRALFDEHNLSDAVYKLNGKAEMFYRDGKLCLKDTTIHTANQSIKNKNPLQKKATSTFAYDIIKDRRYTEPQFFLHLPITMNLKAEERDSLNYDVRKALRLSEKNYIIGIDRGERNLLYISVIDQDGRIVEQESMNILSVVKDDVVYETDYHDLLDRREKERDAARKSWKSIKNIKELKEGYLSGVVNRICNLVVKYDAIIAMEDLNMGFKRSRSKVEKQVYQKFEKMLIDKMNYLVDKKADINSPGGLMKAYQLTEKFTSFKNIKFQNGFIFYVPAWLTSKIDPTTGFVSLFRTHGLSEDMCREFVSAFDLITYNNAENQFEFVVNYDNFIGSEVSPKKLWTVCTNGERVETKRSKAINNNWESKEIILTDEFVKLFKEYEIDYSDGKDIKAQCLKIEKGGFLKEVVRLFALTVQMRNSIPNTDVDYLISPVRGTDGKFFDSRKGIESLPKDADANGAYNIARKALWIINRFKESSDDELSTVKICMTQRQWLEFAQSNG
Assay: cleavage_in_vitro
Settings: PAM ATTT; CutSmart buffer, 37 C, 2 h

Question: With “crRNA-ATTT pUC19 ; pUC19 circular plasmid” as the substance, how does the activity read?
Answer: 100 % linearised
